The values that follow come from patent publication US20030187223A1 (US Dept. of Health and Human Services, published 2003).

The target in this experiment is T1, bovine serum albumin (bovine, UniProt P02769 25-607).
T1 construct: Control coat in the ELISA; also called BSA
Put plainly: ELISA, wells coated with BSA alone, Wg conditioned medium. On the procedure:
First, an ELISA was used to measure sFRP-1 binding to Wg. Wells were coated with purified full-length sFRP-1 and then blocked with an excess of BSA. Subsequently, conditioned medium from S2HSWg cells expressing soluble Wg was incubated in the wells overnight at room temperature. As a control, aliquots of the same medium were incubated in wells treated with BSA but not sFRP-1. […] In contrast, little Wg was detected in wells that had not been treated with sFRP-1 , and no signal was observed when medium lacking Wg was used in the assay (FIG. 3, A and B).
sFRP-1/Wg ELISA Binding Assays—sFRP-1 diluted in 0.02% NaN₃/PBS was incubated in 96-well Falcon ELISA plates (300 ng/[…]) for 2 h at 37° C. After decanting, all wells were filled with 4% BSA/0.02% NaN₃/PBS and incubated for an additional 2 h at 37° C. Following five washes with TAPS (0.05% Tween-20 in 0.02% NaN₃/PBS), […] of Wg-containing or S2 control medium diluted in 1% BSA/TAPS were incubated overnight at room temperature. After five washes with TAPS, […] of Wg mAb diluted in 1% BSA/TAPS to a final concentration of […] was incubated in wells for 2 h at 37° C. Another five washes in TAPS were followed by a 2 h treatment at 37° C. with 1:400 dilution of conjugated alkaline phosphatase-goat anti-mouse IgG (Sigma). […] Absorbance at 405 nm was measured with an ELISA plate reader (Bio-Rad, Hercules, Calif.). […]
Background: An ELISA detects its analyte on a solid surface through an enzyme-linked reagent.

T1 sequence (P02769 25-607 limits assumed): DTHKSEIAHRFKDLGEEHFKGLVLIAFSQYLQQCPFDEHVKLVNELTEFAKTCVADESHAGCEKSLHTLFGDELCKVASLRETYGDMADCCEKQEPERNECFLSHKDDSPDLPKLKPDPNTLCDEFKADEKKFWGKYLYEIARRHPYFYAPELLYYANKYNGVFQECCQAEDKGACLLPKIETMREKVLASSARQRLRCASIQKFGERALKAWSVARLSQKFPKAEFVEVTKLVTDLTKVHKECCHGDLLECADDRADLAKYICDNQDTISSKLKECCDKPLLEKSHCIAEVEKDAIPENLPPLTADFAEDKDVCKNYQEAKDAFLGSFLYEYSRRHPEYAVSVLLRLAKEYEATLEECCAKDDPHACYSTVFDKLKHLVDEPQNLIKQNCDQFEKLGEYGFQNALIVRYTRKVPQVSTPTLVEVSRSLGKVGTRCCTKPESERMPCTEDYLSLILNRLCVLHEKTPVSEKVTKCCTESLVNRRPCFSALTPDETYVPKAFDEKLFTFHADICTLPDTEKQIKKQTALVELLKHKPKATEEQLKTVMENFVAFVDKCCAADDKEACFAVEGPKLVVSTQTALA

B1: Wingless (Wg), soluble, in conditioned medium of S2HSWg cells (ligand, Drosophila melanogaster, UniProt P09615 18-468, looked up)
chain: GSSLSQVEGKQKSGRGRGSMWWGIAKVGEPNNITPIMYMDPAIHSTLRRKQRRLVRDNPGVLGALVKGANLAISECQHQFRNRRWNCSTRNFSRGKNLFGKIVDRGCRETSFIYAITSAAVTHSIARACSEGTIESCTCDYSHQSRSPQANHQAGSVAGVRDWEWGGCSDNIGFGFKFSREFVDTGERGRNLREKMNLHNNEAGRAHVQAEMRQECKCHGMSGSCTVKTCWMRLANFRVIGDNLKARFDGATRVQVTNSLRATNALAPVSPNAAGSNSVGSNGLIIPQSGLVYGEEEERMLNDHMPDILLENSHPISKIHHPNMPSPNSLPQAGQRGGRNGRRQGRKHNRYHFQLNPHNPEHKPPGSKDLVYLEPSPSFCEKNLRQGILGTHGRQCNETSLGVDGCGLMCCGRGYRRDEVVVVERCACTFHWCCEVKCKLCRTKKVIYTCL
notes: Used as unpurified conditioned medium; also called Wg medium; Wg-containing medium
On to B1, for which the binding result is recorded as “no binding”.
